Laboratory results reported in patent publication US20260265409A1 (NANJING LEADS BIOLABS, published 2026).

T1: recombinant human FAP protein (Sino Biological, Cat #10464-H07H) (human, UniProt Q12884 26-760)
T1 construct: Bought protein
T1 sequence: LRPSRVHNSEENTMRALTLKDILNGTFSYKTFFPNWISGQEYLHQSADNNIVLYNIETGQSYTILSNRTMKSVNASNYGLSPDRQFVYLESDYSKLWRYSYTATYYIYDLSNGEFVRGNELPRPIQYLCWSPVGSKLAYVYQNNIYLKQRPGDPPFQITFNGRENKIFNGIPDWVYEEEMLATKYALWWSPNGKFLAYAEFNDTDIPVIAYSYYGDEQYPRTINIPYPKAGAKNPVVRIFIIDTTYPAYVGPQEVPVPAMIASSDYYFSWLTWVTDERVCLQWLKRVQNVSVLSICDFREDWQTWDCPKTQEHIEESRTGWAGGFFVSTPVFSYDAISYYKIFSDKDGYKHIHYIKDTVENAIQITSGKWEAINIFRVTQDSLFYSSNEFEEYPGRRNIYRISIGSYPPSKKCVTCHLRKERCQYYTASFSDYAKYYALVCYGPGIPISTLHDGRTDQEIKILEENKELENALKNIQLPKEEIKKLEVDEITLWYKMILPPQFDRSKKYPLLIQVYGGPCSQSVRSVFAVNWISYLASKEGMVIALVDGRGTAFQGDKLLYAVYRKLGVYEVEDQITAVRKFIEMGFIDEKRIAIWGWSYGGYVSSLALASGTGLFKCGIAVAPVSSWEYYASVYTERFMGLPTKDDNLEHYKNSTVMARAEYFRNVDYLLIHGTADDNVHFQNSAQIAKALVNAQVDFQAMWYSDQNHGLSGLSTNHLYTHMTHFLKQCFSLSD

T2: human FAP protein expressed on 293T cells (293T-human FAP) (human, UniProt Q12884 1-760)
T2 sequence: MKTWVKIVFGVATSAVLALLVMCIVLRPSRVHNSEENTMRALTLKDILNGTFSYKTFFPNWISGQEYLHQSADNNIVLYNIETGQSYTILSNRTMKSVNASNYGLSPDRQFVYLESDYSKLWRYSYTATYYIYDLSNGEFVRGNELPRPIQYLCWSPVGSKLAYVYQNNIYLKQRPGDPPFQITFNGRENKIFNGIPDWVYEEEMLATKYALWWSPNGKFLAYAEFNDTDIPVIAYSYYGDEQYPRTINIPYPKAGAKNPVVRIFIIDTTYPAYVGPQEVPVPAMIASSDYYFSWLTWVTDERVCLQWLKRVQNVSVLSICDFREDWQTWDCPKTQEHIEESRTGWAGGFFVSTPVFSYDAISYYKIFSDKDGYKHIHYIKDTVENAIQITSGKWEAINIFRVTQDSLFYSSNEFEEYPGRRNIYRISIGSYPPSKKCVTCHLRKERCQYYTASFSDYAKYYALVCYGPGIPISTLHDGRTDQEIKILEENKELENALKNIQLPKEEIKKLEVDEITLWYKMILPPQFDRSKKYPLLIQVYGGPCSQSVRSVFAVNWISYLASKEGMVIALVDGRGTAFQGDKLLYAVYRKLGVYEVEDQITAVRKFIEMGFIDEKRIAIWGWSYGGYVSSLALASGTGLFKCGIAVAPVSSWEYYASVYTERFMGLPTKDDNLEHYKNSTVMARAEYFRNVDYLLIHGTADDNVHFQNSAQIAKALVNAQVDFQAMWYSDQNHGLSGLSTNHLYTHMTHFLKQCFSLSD

T3: cynomolgus FAP protein expressed on 293T cells (293T-cynomolgus FAP) (cynomolgus monkey, UniProt Q12884 1-760 (human entry))
T3 sequence: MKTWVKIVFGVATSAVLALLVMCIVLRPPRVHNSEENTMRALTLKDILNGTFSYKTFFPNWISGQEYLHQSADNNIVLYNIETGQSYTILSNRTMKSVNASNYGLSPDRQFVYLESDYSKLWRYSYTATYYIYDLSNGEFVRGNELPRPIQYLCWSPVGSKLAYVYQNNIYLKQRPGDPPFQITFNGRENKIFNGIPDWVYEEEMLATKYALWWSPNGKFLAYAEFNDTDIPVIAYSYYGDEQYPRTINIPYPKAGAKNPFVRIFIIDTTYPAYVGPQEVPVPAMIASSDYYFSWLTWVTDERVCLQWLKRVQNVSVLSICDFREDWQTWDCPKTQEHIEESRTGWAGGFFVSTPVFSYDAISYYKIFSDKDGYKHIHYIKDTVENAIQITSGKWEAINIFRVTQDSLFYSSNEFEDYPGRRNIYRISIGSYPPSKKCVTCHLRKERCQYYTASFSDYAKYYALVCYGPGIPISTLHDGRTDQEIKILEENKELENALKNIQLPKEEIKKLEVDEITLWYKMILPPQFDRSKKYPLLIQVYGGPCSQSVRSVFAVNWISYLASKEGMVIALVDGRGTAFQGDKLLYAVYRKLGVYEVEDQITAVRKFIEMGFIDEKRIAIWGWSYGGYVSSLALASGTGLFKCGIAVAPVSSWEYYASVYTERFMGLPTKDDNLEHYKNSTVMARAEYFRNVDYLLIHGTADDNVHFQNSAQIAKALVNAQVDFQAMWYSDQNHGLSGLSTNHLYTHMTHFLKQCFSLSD

B1: sibrotuzumab (humanized reference antibody) (antibody, human IgG1, kappa, V domains shown)
VH: QVQLVQSGAEVKKPGASVKVSCKTSRYTFTEYTIHWVRQAPGQRLEWIGGINPNNGIPNYNQKFKGRVTITVDTSASTAYMELSSLRSEDTAVYYCARRRIAYGYDEGHAMDYWGQGTLVTVSS
VL: DIVMTQSPDSLAVSLGERATINCKSSQSLLYSRNQKNYLAWYQQKPGQPPKLLIFWASTRESGVPDRFSGSGFGTDFTLTISSLQAEDVAVYYCQQYFSYPLTFGQGTKVEIKR
B2: humanized anti-FAP antibody huF19-LG (antibody, human IgG1, kappa, V domains shown)
VH: QVQLVQSGAEVKKPGASVKVSCKASGYTFTEYTIHWVRQATGQGLEWIGGINPNNGIPNYNQKFKGRATMTVGTSISTAYMELSSLRSEDTAVYFCARRRIAYGYDEGHAMDYWGQGTLVTVSS
VL: DIQMTQSPSSLSASVGDRVTITCKSSQSLLYSRNQKNYLAWFQQKPGKAPKLLIFWASTRESGVPSRFTGSGFGTDFTLTISSLQPEDFATYYCQQYFSYPLTFGQGTKLEIKR
notes: Humanized from murine F19
B3: mutant humanized FAP antibody huF19-LG-NGR (antibody, human IgG1, kappa, V domains shown)
VH: QVQLVQSGAEVKKPGASVKVSCKASGYTFTEYTIHWVRQATGQGLEWIGGINPNNRIPNYNQKFKGRATMTVGTSISTAYMELSSLRSEDTAVYFCARRRIAYGYDEGHAMDYWGQGTLVTVSS
VL: DIQMTQSPSSLSASVGDRVTITCKSSQSLLYSRNQKNYLAWFQQKPGKAPKLLIFWASTRESGVPSRFTGSGFGTDFTLTISSLQPEDFATYYCQQYFSYPLTFGQGTKLEIKR
notes: huF19-LG with G56R (Kabat) in HCDR2; also called optimized FAP antibody; mutant antibody

Columns and labels:
[1] = target: T1, recombinant human FAP protein (Sino …); assay: ELISA, human FAP protein coated on the plate, detection with HRP goat anti-human IgG F(ab')2; unit from the axis 'Antibody Conc[nM]' and paragraph 217
Description: Human FAP protein (Sino Biological, Cat #10464-H07H) was immobilized on a 96-well plate by incubation overnight in a PBS buffer at 4° C. The plate was then blocked by incubation with a PBS containing 1% of BSA for 1 h at 37° C. After blocking, the plate was washed thrice with PBST (PBS containing 0.05% of Tween 20). […] After binding, the plate was washed thrice with PBST, incubated at 37° C. for 1 h with peroxidase-labeled goat anti-human IgG, F(ab′)₂ fragment specific (Jackson Immuno Research, Cat #109-035-097) diluted at 1/15,000 in the binding buffer, washed again, subjected to a chromogenic reaction with TMB, and quenched with 1 M H₂SO₄.

[2] = target: T2, human FAP protein expressed on 293T …; assay: flow cytometry on 293T-human FAP cells, PE goat anti-human IgG Fc secondary antibody
Description: (§1) The cells were washed twice with PBS, and then fluorescent secondary antibody R-PE-conjugated AffiniPure Goat Anti-Human IgG, Fcγ Fragment Specific (Jackson Immuno Research, Cat #109-116-098) was added. The cells were incubated at 4° C. for 30 min. The cells were washed twice with PBS and then resuspended, and finally, fluorescence signals were detected using the […] (BD Bioscience) flow cytometer.

[3] = target: T4, human DPP4 protein expressed on 293T cells (293T-DPP4) (human, UniProt P27487 1-766); assay: flow cytometry on 293T-DPP4 cells, PE goat anti-human IgG Fc secondary antibody
T4 construct: also called CD26
Description: as §1, with “cytometer. […] The antibodies were diluted at 1:100 with PBS, and the cell pellet was resuspended and incubated at 4° C. for 30 min. The cells were washed twice with PBS and then resuspended in 100 μL of PBS, and finally, fluorescence signals were detected using the BD Accuri C5 (BD Bioscience) flow cytometer.” for “cytometer.”

[4] = target: T3, cynomolgus FAP protein expressed on …; assay: flow cytometry on 293T-cynomolgus FAP cells, PE goat anti-human IgG Fc secondary antibody
Description: as §1

[5] = target: T3, cynomolgus FAP protein expressed on …; assay: flow cytometry on 293T-cynomolgus FAP cells (panel title on the sheet), PE goat anti-human IgG Fc secondary antibody
Description: as §1

[6] = target: T2, human FAP protein expressed on 293T …; assay: flow cytometry on 293T-human FAP cells (panel title on the sheet), PE goat anti-human IgG Fc secondary antibody
Description: as §1

T4 sequence (P27487 whole entry): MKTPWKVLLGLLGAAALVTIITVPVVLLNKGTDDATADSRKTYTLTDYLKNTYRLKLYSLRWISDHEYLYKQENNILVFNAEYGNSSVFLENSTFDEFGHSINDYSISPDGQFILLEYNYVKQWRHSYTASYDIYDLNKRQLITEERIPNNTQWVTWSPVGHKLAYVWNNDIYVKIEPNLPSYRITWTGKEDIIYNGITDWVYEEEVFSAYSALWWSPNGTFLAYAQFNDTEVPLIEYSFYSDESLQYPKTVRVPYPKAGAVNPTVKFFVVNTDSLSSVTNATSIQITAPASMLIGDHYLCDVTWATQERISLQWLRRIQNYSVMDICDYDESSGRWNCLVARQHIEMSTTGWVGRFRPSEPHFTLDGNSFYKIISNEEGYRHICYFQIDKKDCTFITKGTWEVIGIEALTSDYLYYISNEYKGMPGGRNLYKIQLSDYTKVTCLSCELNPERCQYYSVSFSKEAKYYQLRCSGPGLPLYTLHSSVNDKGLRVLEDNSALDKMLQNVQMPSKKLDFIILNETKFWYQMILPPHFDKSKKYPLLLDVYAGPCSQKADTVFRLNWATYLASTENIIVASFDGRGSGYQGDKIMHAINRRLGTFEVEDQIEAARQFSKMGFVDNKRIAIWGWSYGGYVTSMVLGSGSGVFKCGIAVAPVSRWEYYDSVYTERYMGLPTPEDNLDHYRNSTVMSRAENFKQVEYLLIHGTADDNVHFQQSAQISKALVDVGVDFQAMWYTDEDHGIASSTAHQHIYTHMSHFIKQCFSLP

| Binder | EC50 [1] [nM] | EC50 (read off the curve) [2] [nM] | binding result [3] | EC50 (read off the curve) [4] [nM] | EC50 (read off the curve) [5] [nM] | EC50 (read off the curve) [6] [nM] |
| --- | --- | --- | --- | --- | --- | --- |
| B1 | 0.0863 | ~2 | no binding (tested: 10 µg/mL) | ~1 | – | – |
| B2 | 0.0926 | ~2 | no binding (tested: 10 µg/mL) | 1 to 2 | ~4 | ~3 |
| B3 | – | – | – | – | ~3 | ~2 |
